Data on two molecules can be found in patent US20140186340A1, “Methods and Compositions for Normalization of Tumor Vasculature by Inhibition of LOXL2” (GILEAD BIOLOGICS, INC., priority 2011, published 2014).

Assay [1] deals with SKOV3 ovarian carcinoma cells. In words: SKOV3 tumor xenograft, tumor growth. Type of assay: in vivo, mice. The conditions noted are these: twice weekly i.p., AB0023 15 mg/kg, taxol 5 mg/kg, monitored 40 days, vs vehicle controls. On the procedure:
(§1) SKOV3 ovarian carcinoma cells were obtained from ATCC, Manassas, Va. 5×10^6 cells, suspended in 50% (v/v) Matrigel, were implanted subcutaneously in female athymic nude mice. After tumors attained a volume of 100 mm^3, the mice received twice weekly intra-peritoneal injections of vehicle, anti-LOXL2 antibody AB0023 (15 mg/kg), taxol (5 mg/kg) or a combination of taxol and AB0023. The experiment was terminated when tumors from control (vehicle-treated) animals attained an average volume of 1,000 mm^3, at which point the animals were sacrificed, tumors were removed and snap-frozen, and 5 μm thick frozen sections were prepared from the frozen tumors.
Female athymic nude mice were implanted with SKOV3 ovarian carcinoma cells which, when transplanted, form highly vascularized subcutaneous tumors. Expression of LOXL2 in these tumors was confirmed by immunohistochemistry; it was noted that most of the LOXL2 immunostaining was associated with vascular structures. When the average tumor volume of the population reached 100 mm^3, the mice were treated twice weekly with intra-peritoneal injections of the anti-LOXL2 antibody AB0023 (15 mg/kg), taxol (5 mg/kg) or a combination of AB0023 and taxol at the concentrations given above. Control mice received injection of vehicle (PBST). Tumor growth was monitored for 40 days.

Assay [2] has as its system SKOV3-derived tumors. Put plainly: SKOV3 xenograft, tumor hypoxia by carbonic anhydrase IX (CA9) levels. Type of assay: in vivo, mice. The note with it: vs vehicle. How it is done: as §1
Sections were fixed with 4% paraformaldehyde and blocked using Peroxidazed 1 and Background Sniper (Biocare Medical, Concord, Calif.) before incubation with primary antibody. Anti-CA9 antibody (Abcam) was applied and Mach2 HRP-polymer (Biocare Medical) was used as secondary antibody. All sections were dehydrated through a series of ethanol dilutions and xylene, mounted using a resinous medium, and visualized using DAB chromogen.
Mice with SKOV3-derived tumors, as described in Example 4, were treated with AB0023 and/or taxol; and the effects on levels of carbonic anhydrase IX (CA9), a marker of hypoxia, were determined. […] Thus, inhibition of LOXL2 reduces vessel density and reduces hypoxia in tumors.

In assay [3] the test system is bFGF-induced angiogenesis. Put plainly: Matrigel plug assay, flow cytometric analysis. Type of assay: in vivo, mice. The conditions noted are these: plugs harvested 7 days after implantation, vs vehicle. How it is done: The anti-angiogenic effects of systemic AB0023 administration in the Matrigel plug assay system were also assessed using flow cytometry to assay for cells expressing CD31, and for CD45-negative cells that express the vascular endothelial growth factor receptor VEGFR2 (an angiogenic marker). Analysis was conducted according to the method described by Adini et al. (2009) J. Immunol. Meth. 342:78-81.

Assay [4] concerns human umbilical vein endothelial cells (HUVEC). In words: Tube formation on Matrigel by HUVEC. Type of assay: cell-based. The note with it: antibody 1 ug/ml, compared to control antibody AC-1; bFGF 5 ng/ml, 24 hours. The text has this: (§2) HUVEC were isolated from umbilical veins and cultured as described. Gospodarowicz et al. (1983) J. Cell Biol. 97:1677-1685; Kigel et al. (2008) PLoS One 3:e3278. Recombinant human bFGF was produced and purified according to Tessler et al. (1990) J. Cell. Physiol. 145:310-317. For inhibition of LOXL2 expression by shRNA, lentiviruses directing expression of a LOXL2-targeted shRNA and a control shRNA were generated and used to infect HUVEC as described. Brekhman et al. (2009) BMC Cancer 9:415. The anti-LOXL2 monoclonal antibody (AB0023) has been described. See, e.g., Rodriguez et al. (2010) J. Biol. Chem. 285:20964-20974 and United States Patent Application Publication No. 2009/0053224 (Feb. 26, 2009).
Tube formation on Matrigel was carried out as described. Varshaysky et al. (2008) Cancer Res. 68:6922-2931. For shRNA inhibition HUVEC, infected with either shLOXL2-encoding or control lentivirus, were seeded in Matrigel-coated 48 well tissue culture plates (1.6×10^4 cells/well) and incubated with growth medium supplemented with bFGF (5 ng/ml) for 24 hours. […] Phase-contrast images were photographed at 63× magnification and bifurcations-per-field of tube structures in microscopic fields were quantified by manual counting.

The subject of assay [5] is SKOV3-derived tumors. In words: SKOV3 xenograft, pericytes by NG2 and CD31 staining. Type of assay: in vivo, mice. The conditions noted are these: vs vehicle. How it is done:
as §1
(§3) For assessment of perfusion, the animals were injected intravenously with Hoechst 33342 (40 mg/kg) one minute prior to sacrifice and tumor removal was performed as described by Franco et al. (2006) Cancer Res. 66:3639-3648 and Rijken et al. (2000) Int. […] Bound anti-CD31 was detected with a goat anti-rat CY3-labeled antibody (Jackson Laboratories, Bar Harbor, Me.) and bound NG2 antibodies were detected with a Cy2-labeled anti-rabbit antibody (Jackson Laboratories, Bar Harbor, Me.). The stained sections were visualized using a confocal microscope or a Leica CTR 6000 microscope, and at least five microscopic fields were analyzed in each section. For analysis of perfusion, the coincidence of CD31-staining and Hoechst dye fluorescence was assessed. […]

Assay [6] has as its system SKOV3-derived tumors. In words: SKOV3 xenograft, tumor vessel number by CD31 immunoreactivity. Type of assay: in vivo, mice. The conditions noted are these: vs vehicle-treated animals; p<0.01. How it is done:
as §1, §3

For assay [7], the system named is human umbilical vein endothelial cells (HUVEC). In words: bFGF-induced HUVEC migration assay (transwell). Type of assay: cell-based. The conditions noted are these: antibody 10 μg/ml, compared to control antibody AC-1; 5 hours. How it is done:
To determine whether LOXL2 activity contributes to bFGF-induced migration of human umbilical vein endothelial cells (HUVEC), experiments were conducted in which expression of LOXL2 was inhibited using a LOXL2-targeted shRNA, and LOXL2 activity was inhibited using an anti-LOXL2 antibody.
as §2
For migration assays, HUVEC were seeded in transwell culture dishes (8 μm pores, 3×10^4 cells/well) coated with fibronectin (10 μg/ml, Biological Industries) in 200 μl of M199 medium containing 20% fetal calf serum. […] After 5 hours, cells that had migrated were fixed for 20 minutes with 4% paraformaldehyde, washed three times with PBS, stained with 0.05% crystal violet for 10 minutes, photographed, and counted.

In assay [8] the test system is bFGF-induced angiogenesis. Put plainly: Matrigel plug assay, vessel counting and immunohistochemistry. Type of assay: in vivo, mice. How it is done: To determine if inhibition of LOXL2 could modulate angiogenesis in vivo, we examined the effects of the anti-LOXL2 antibody AB0023 on bFGF-induced angiogenesis, using a Matrigel plug assay. Kessler et al. (2004) Cancer Res. 64:1008-1015; Kibbey et al. (1992) J. Natl. Cancer Inst. 84:1633-1638.
For these experiments, either AB0023, at a concentration of 30 mg/kg, or vehicle (PBS+0.01% Tween-20) were injected intraperitoneally (30 mg/kg or equivalent volume) twice weekly into athymic female Ncr:Nu/Nu mice. After one week the mice were injected subcutaneously with 250 or 500 μl Matrigel (BD Biosciences, San Jose, Calif.) supplemented with 100 ng/ml human bFGF (Peprotech, Rocky Hill, N.J.) and 40 or 60 U heparin (Sigma, St. Louis, Mo.). Matrigel plugs were harvested after 10 days, excised together with attached skin, fixed in 10% neutral buffered formalin, and embedded in paraffin. Immunohistochemical analysis was performed on 5 μm serial sections with anti-CD31, anti-CD34, and anti-NG2 antibodies. 2 step sections separated by […] were analyzed per plug. Three representative 10× microscopic fields were selected per section per step, for a total of 6 fields per plug.
Immunohistochemical analysis was performed with anti-CD34 antibody on one representative section from each plug. Three representative 10× fields were selected per section for quantitation. For all IHC analysis of plugs, the mean area of signal was determined for each treatment group using Metamorph software (Molecular Devices).

The test system of assay [9] is SKOV3-derived tumors. In words: SKOV3 xenograft, tumor perfusion by Hoechst 33342 / CD31 coincidence. Type of assay: in vivo. The note with it: Hoechst 33342 40 mg/kg i.v. one minute before sacrifice; vs control mice; p<0.05. How it is done:
as §1, §3

[10] abbreviates: independent experiment, vs vehicle.

`CC(=O)O[C@H]1C(=O)[C@@]2(C)[C@H]([C@H](OC(=O)c3ccccc3)[C@]3(O)C[C@H](OC(=O)[C@H](O)[C@@H](NC(=O)c4ccccc4)c4ccccc4)C(C)=C1C3(C)C)[C@]1(OC(C)=O)CO[C@@H]1C[C@@H]2O` [taxol, paclitaxel, reference compound]: in assay [1], the “tumor growth (increase in tumor volume)” value is given as “small, statistically insignificant inhibition”. The “effect on CA9 levels in tumors” value in assay [2] (taxol 5 mg/kg twice weekly i.p.) is “did not have a statistically significant effect”.

B1: AB0023: mouse monoclonal antibody directed against LOXL2; heavy and light chain variable regions SEQ ID NO:1 and 2 (antibody, listed as Mus musculus, V domains shown)
VH: MEWSRVFIFLLSVTAGVHSQVQLQQSGAELVRPGTSVKVSCKASGYAFTYYLIEWVKQRPGQGLEWIGVINPGSGGTNYNEKFKGKATLTADKSSSTAYMQLSSLTSDDSAVYFCARNWMNFDYWGQGTTLTVSS
VL: MRCLAEFLGLLVLWIPGAIGDIVMTQAAPSVSVTPGESVSISCRSSKSLLHSNGNTYLYWFLQRPGQSPQFLIYRMSNLASGVPDRFSGSGSGTAFTLRISRVEAEDVGVYYCMQHLEYPYTFGGGTKLEIK
In the case of B1, in assay [3], the “number of CD31+ cells in plugs (flow cytometry)” value was “significantly reduced” and the “number of VEGFR-2+/CD45- endothelial cells in plugs (flow cytometry)” value is listed as “significantly reduced”. The “tube formation on Matrigel” value in assay [4] is reported as “inhibited”. The “total number of NG2-expressing cells in tumors” value in assay [5] is “not significantly changed”. The “concentration of vessel-associated pericytes in tumors (correspondence of CD31 and NG2 staining)” value in assay [5] (p<0.01) is “significantly increase”. In addition, the “CD31 immunoreactivity in tumors (concentration of tumor-associated blood vessels)” value in assay [6] was “statistically significant decrease”. In addition, the “tumor growth (increase in tumor volume)” value in assay [1] is “did not inhibit tumor growth”. Besides, the “bFGF-induced cell migration of HUVEC” value in assay [7] is listed as “inhibited”. In addition, the “reduction in CA9 levels in tumors” value in assay [2] (AB0023 15 mg/kg twice weekly i.p., p<0.05) stood at 66%. In addition, the “number of blood vessels in Matrigel plugs (whole plug vessel counting)” value in assay [8] (30 mg/kg i.p. twice weekly, athymic Ncr:Nu/Nu mice, plugs after 10 days, vs vehicle) was “significant reduction”. Further, the “CD31 levels in Matrigel plug sections” value in [8] (30 mg/kg i.p. twice weekly, plugs after 10 days, vs vehicle) is “reduced”. The “CD34 immunoreactivity in implanted plugs” value in assay [8] (further study, vs vehicle and control antibody AC-1) is “loss of CD34 immunoreactivity”. Moreover, in assay [8] (setting [10]), the “staining for CD34 in Matrigel plugs” value was “significant reduction” and the “staining for pericyte marker NG2 in Matrigel plugs” value is recorded as “significant reduction”. For the same molecule, the “tumor perfusion (Hoechst staining associated with CD31-positive vessels)” value in assay [9] is “better perfusion”.
